Like-named read-outs stand apart in the source and are kept apart here.
Assays:
[1] = target: T1, A56-C-His (recombinant protein A56 with C-terminal His tag, produced in HEK293F cells) (vaccinia virus, UniProt P08714 17-279)
T1 chain: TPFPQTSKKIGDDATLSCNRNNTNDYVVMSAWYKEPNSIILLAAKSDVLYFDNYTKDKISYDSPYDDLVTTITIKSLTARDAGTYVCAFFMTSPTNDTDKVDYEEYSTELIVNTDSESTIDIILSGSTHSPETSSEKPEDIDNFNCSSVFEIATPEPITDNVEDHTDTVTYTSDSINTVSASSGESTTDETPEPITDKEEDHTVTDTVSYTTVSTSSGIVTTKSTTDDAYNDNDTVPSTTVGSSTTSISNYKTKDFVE

[2] = target: T1, A56-C-His (recombinant protein A56 with …); assay: ELISA (row 'KD (M) by ELISA')
[3] = target: T1, A56-C-His (recombinant protein A56 with …); assay: OCTET (row 'KD (M) by OCTET'; the legend calls it SPR)
[4] = target: T1, A56-C-His (recombinant protein A56 with …)
[5] = target: T1, A56-C-His (recombinant protein A56 with …); assay: ELISA on coated A56 (100 ng), fit; R square 0.9969
[6] = target: T1, A56-C-His (recombinant protein A56 with …); assay: ELISA on coated A56 (100 ng), fit; R square 0.9821
[7] = target: T1, A56-C-His (recombinant protein A56 with …); assay: OCTET (row 'KD (M) by OCTET'; the legend calls it SPR)
[8] = target: T1, A56-C-His (recombinant protein A56 with …); assay: ELISA (row 'KD (M) by ELISA')
[9] = target: T1, A56-C-His (recombinant protein A56 with …); assay: OCTET (row 'KD (M) by OCTET'; the legend calls it SPR)
[10] = target: T1, A56-C-His (recombinant protein A56 with …); assay: ELISA on coated A56 (100 ng), fit; R square 0.9274
[11] = target: T1, A56-C-His (recombinant protein A56 with …); assay: ELISA (row 'KD (M) by ELISA')
[12] = target: T1, A56-C-His (recombinant protein A56 with …); assay: ELISA on coated A56 (100 ng), fit; R square 0.9942
[13] = target: T1, A56-C-His (recombinant protein A56 with …); assay: ELISA (row 'KD (M) by ELISA')
[14] = target: T1, A56-C-His (recombinant protein A56 with …); assay: OCTET (row 'KD (M) by OCTET'; the legend calls it SPR)
[15] = target: T1, A56-C-His (recombinant protein A56 with …); assay: as above
[16] = target: T1, A56-C-His (recombinant protein A56 with …); assay: ELISA (row 'KD (M) by ELISA')
[17] = target: T1, A56-C-His (recombinant protein A56 with …); assay: ELISA on coated A56 (100 ng), fit; R square 0.9953

B1: anti-A56 antibody Ab01 (antibody, V domains shown)
VH: QMQLVQSGAEVKKPGSSVKVSCKASGGTFSSYAISWVRQAPGQGLEWMGGIIPIFGTANYAQKFQGRVTMTRDTSTSTVYMELSSLKSEDTAVYYCARFVFGSGTYLDSWGQGTLVTVSS
VL: not shown
notes: also called SA2026; A56-01A02
B1 showed a Kd [1] of 0.492 nM, a koff [1] of 9.67e-05 s⁻¹ and a Kd [2] of 0.029 nM. For the same binder, the Kd [3] was 0.492 nM, the kon [4] was 196000 M⁻¹ s⁻¹ and the Kd [5] was 0.029 nM.

B2: anti-A56 antibody Ab16 (antibody, V domains shown)
VH: QVQLQQSGPGLVKPSQTLSLTCAISGDSVSSNSAAWNWIRQSPSRGLEWLGRTYYRSKWYNDYAVSVKSRITINPDTSKNQFSLQLNSVTAVDTAVYYCAKSYAGPISYYYYGLDVWGQGTTVTVSS
VL: QSALTQPASVSGSPGQSVTISCTGTSSDIGRYNLVSWYQQHPGKAPKLMIYGGSKRPSGVSNRFSGSNSDNTASLTISGLRAEDEADYYCSSYASSSTPYVFGTGTKVTVL
notes: also called SA2041; A56-02B08
In the case of B2, the Kd [1] is reported as 2.28 nM, the koff [1] is reported as 0.000561 s⁻¹ and the kon [4] is reported as 246000 M⁻¹ s⁻¹. The Kd [6] was 0.024 nM, the Kd [7] was 0.228 nM and the Kd [8] was 0.024 nM.

B3: anti-A56 antibody Ab13 (antibody, V domains shown)
VH: QMQLVESGAEVKKTGSSVKVSCKASGDTLTYRFLHWVRQAPGQAPEWMGWITPFNDNTNYAQKFQDRVTITRDRSMSTAYMELSSLRSEDTAVYYCATGGGNNYYGMEVWGQGTPITVSS
VL: SYELTQPLSLSVSPGQTASITCSGDKLGDKFTSWYQQQPGQSPVLVIYQDAKRPSGIPERFSGSNSGSTATLTISGTQSMDEADYYCQAWDSSSVVFGGGTKLTVL
notes: also called SA2038; A56-02A02
For B3, the Kd [1] was 0.739 nM, the koff [1] was 8.26e-05 s⁻¹ and the Kd [9] was 0.739 nM. The Kd [10] was 0.033 nM, the Kd [11] was 0.033 nM and the kon [4] was 112000 M⁻¹ s⁻¹.

B4: anti-A56 antibody Ab18 (antibody, V domains shown)
VH: QVQLVESGGGLVQPGKSLRLSCAASGFTFSTYGMTWVRQAPGKGLEWVSGISGGGSSTNYADSVKGRFIISRDNSNNTLYLQMNSLRAEDTAVYYCARWGVMLSFDYWGQGTPVTVSS
VL: DIQMTQSPSTLPASVGDRVTITCRASYSVSPWLAWYQQKPGKAPKLLIYKASTLESGVPSRFSGSGSGTEFTLTISSLQPDDFATYYCQQFNSYMMYTFGQGTKLEIK
notes: also called SA2043; A56-02C06
B4 was tested, and the Kd [1] was 0.196 nM, the koff [1] was 1.96e-05 s⁻¹ and the Kd [12] was 0.026 nM. It also gave a kon [4] of 100000 M⁻¹ s⁻¹, a Kd [13] of 0.026 nM and a Kd [14] of 0.196 nM.

B5: anti-A56 antibody Ab19 (antibody, V domains shown)
VH: QVQLVESGAEVRRPGSSVKVSCKTSGVTFSGYVLSWVRQAPGHGLEWMGRIIPLIDVENYAREFQGRMKITADKSTNTVYMELNNLRSEDTAVYYCAKSVVRGLDYYYYGFDVWGQGTTVTVSS
VL: SYELTQPPSLSVAPGKTARITCGGNNIGSKSVHWYQQKPGQAPRLVTYYDGNRPSGIPERFSGSNSGNTATLIISRVEAGDEADYYCQVWDSSSDQGVFGTGTKVTVL
notes: also called SA2044; A56-02C07
Work on B5 yielded a Kd [1] of 0.438 nM, a koff [1] of 2.47e-05 s⁻¹ and a Kd [15] of 0.438 nM. It also gave a Kd [16] of 0.044 nM, a Kd [17] of 0.044 nM and a kon [4] of 56400 M⁻¹ s⁻¹.

Reference: patent US20240156865A1 (BIONOXX, published 2024)
